Measured values: paper doi:10.1101/2021.02.25.432905 (bioRxiv, 2021)

Biological target: A/California/7/2009 HA (recombinant HA, rHA) (Influenza A virus A/California/07/2009 …, UniProt C3W5X2)

B1: 350-145 (antibody, V domains shown)
VH: EVQLVESGGGLVQPGGSLRLSCSASGFTFSSYSMNWVRQAPGKGLEWLSYISSSSGSKYYADSVKGRFTISRDNAKNLVYLQMSSLRADDAAMYYCARSDYAVFYYGMDVWGQGTTVTVSS
VL: EIVMTQSPATLSVSPGERATLSCRASQSVSSNLAWYQQKPGQAPRLLIYGASTRATGIPARFSGSGSGTEFTLTISSLQSEDFAVYYCQQYYNWPPLTFGGGTKVEIK
binding result: binds
